These results are taken from US10106577B2, “Agonists of neurotrophin receptors and their use as medicaments” (BIONURE FARMA, S.L., priority 2010, dated 2018).

For series [1], the system named is ATF-2. Kind of series: Luminex signalling assay in SH-SY5Y. The format is cell-based, human. The following applies: G79 100 ng/ml and 20 μg/ml, BDNF 20 ng/ml; 30 min, 1 h, 2 h, 6 h. The text has this: (§1) The human neuroblastoma cell line SH-SY5Y was used to perform Luminex signalling assays using the 10-Plex MAPK/SAPK Signaling Kit-Phosphoprotein (Millipore). This cell line expresses the TrkB receptor and the MAPK/SAPK signalling pathway is typically activated by the tyrosinkinase receptors. The phosphoprotein antibodies included into the kit are the following: ERK/MAP kinase (Thr185/Tyr187); STAT-1 (Tyr701); JNK (Thr183/Tyr185); MEK-1 (Ser212); ATF-2 (Thr69/71); p53 (Ser15); HSP27 (Ser78); c-Jun (Ser73); p38 (Thr180/Tyr182), p70 S6 kinase (Thr412); IkBα (Ser32) (purchased from Millipore).
(§2) The cells were propagated and then seeded into 24-well plates (30.000 cell/well). After 24 hours, the cells were treated with two different concentrations of NGF-receptor agonist G79: 100 ng/ml and 20 μg/ml. After adding G79 into the medium, the cells were collected in the lysis buffer of the kit at the following time points: 30 min, 1 h, 2 h, and 6 h. The assay was performed in this way to assess both time and dose effects comparing the treated samples with the untreated cells used as negative controls (unstimulated SH-SY5Y cells). BDNF was used as positive control at the concentration 20 ng/ml, which is the best working concentration known in literature. In the Luminex plate, each sample was added into a well in duplicate. After adding all the samples, the specific positive and negative controls of phosphorilation, included in the Luminex kit, were added. The assay buffer was also added in duplicate, as a background controls.
(§3) In the circles are the activated factors, while in the grey circles are the tested factors. Its effects of the SY-SY5Y cell line in the phosphorilation of several pathways were assessed using xMAP assay from Luminex. […] The levels of activation are expressed as Median Fluorescence Intensity (MFI).

The subject of series [2] is HSP-27. Nature of the series: Luminex signalling assay in SH-SY5Y. It counts as cell-based, human. The following applies: G79 100 ng/ml and 20 μg/ml, BDNF 20 ng/ml; 30 min, 1 h, 2 h, 6 h.
Excerpt: as §1, §2, §3

Series [3] deals with JNK. Nature of the series: Luminex signalling assay in SH-SY5Y. The format is cell-based, human. The following applies: G79 100 ng/ml and 20 μg/ml, BDNF 20 ng/ml; 30 min, 1 h, 2 h, 6 h.
Excerpt: as §1, §2, §3

In series [4] the test system is STAT-1. Kind of series: Luminex signalling assay in SH-SY5Y. The format is cell-based, human. The following applies: G79 100 ng/ml and 20 μg/ml, BDNF 20 ng/ml; 30 min, 1 h, 2 h, 6 h.
Excerpt: as §1, §2, §3

Series [5] concerns SH-SY5Y cells. Nature of the series: Parkinson's disease in vitro model (MPTP stress, MTT). It counts as cell-based, human. The following applies: MPTP 100 μM, 24 hrs; pre-treated 3 hours; BDNF 20 ng/ml. As for the experimental part:
The human neuroblastoma cell line SH-SY5Y was maintained in culture with 50% Ham's F12 medium and 50% EMEM medium, supplemented with 10% FBS, […] L-glutamine and 1% penicillin/streptomycin. The cell culture was maintained in a humidified atmosphere of 95% air and CO2 at 37° C.
The SH-SY5Y cells after differentiation to neuronal phenotype with retinoic acid, were pre-treated for 3 hours with the test compounds at different concentrations (20 ng/ml, 100 ng/ml, 2 μg/ml, 20 μg/ml and 50 μg/ml) or BDNF (20 ng/ml) as a positive control. Then 1-methyl-4-phenyl-1,2,3,6-tetrahydropyridine (MPTP) (100 μM) was added and incubated for 24 hrs. The number of surviving cells was determined the day after by 3-(4,5-dimethylthiazol-2-yl)-2,5-diphenyltetrazolium bromide (MTT) assay.

The subject of series [6] is NSC-34 cells. Kind of series: In vitro model of ALS, serum deprivation of motoneuron-like cells (MTT). It counts as cell-based, mouse. The following applies: BDNF 20 ng/ml; serum deprivation 48 h. Here is the method:
Mouse motoneuron-like cells NCS-34 were cultured in DMEM (Gibco) supplemented with 10% heat inactivated FBS and 1% penicillin/streptomycin. The cell culture was maintained in a humidified atmosphere of 95% air and CO2 at 37° C.
The nutritional deprivation stress in motorneurons was conducted as described previously in Masahito T. et al., J. Neuropathol. Exp. Neurol. 65(8):816-825 (2006). To assess the effect of trophic stress condition on ALS, the presence of apoptosis was investigated using serum deprivation. NSC-34 cells were seeded in 24-well poly-lysinated plates at 30,000 cells/well and preincubated for 24 h in DMEM plus 10% FBS with various doses of G79, G80, and G81 (20 ng/ml, 100 ng/ml, 2 μg/ml, 20 μg/ml, 50 μg/ml), and G-CSF (2 μg/ml) or BDNF (20 ng/ml) which both were used as positive controls (Masahito T. et al., ibid; Elliot J. L., Neurobiology of Disease 6:310-320 (1999)). Then, the medium was removed and replaced with fresh DMEM without FBS. After 48 h, cell viability was assayed by MTT assay, as described previously.

B1: BDNF: brain-derived neurotrophic factor, neurotrophin used as positive control (protein, UniProt P23560 19-247, looked up)
Neurotrophic factor BDNF …: APMKEANIRGQGGLAYPGVRTHGTLESVNGPKAGSRGLTSLADTFEHVIEELLDEDQKVRPNEENNKDADLYTSRVMLSSQVPLEPPLLFLLEEYKNYLDAANMSMRVRRHSDPARRGELSVCDSISEWVTAADKKTAVDMSGGTVTVLEKVPVSKGQLKQYFYETKCNPMGYTKEGCRGIDKRHWNSQCRTTQSYVRALTMDSKKRIGWRFIRIDTSCVCTLTIKRGR
Regarding B1, the “ATF-2 phospho-activation (MFI) compared to unstimulated control” value in series [1] is “significant ATF-2 activation at 2 h after treatment”. For the same molecule, the “HSP-27 phospho-activation (MFI) compared to unstimulated control” value in series [2] is on record as “does not activate HSP-27”. In addition, the “JNK phospho-activation (MFI) compared to unstimulated control” value in series [3] is on record as “significant JNK activation at 2 h after treatment”. Besides, the “STAT-1 phospho-activation (MFI) compared to unstimulated control” value in series [4] is “did not activate STAT-1”. In series [5], the “protection of neuronal cells against MPTP (surviving cells, MTT)” value is listed as “significant protection of neuronal cells”. In addition, the “cell viability, percentage relative to the control without stress” value in series [6] came to 80.62±5.2%.
